Settings in all cases: Filter binding: 50 mM Tris-HCl, 100 mM KCl, 50 mM NaCl, 5 mM MgCl2, pH 7.6, 15 min, footprint: 50 mM MOPS, 100 mM NaCl, 20 mM KCl, 2.5 mM MgCl2, 0.1 mM DTT
Data set [1] has as its target T1, CsiR (Escherichia coli BW25113 (K-12)) (UniProt P37338).
T1 sequence: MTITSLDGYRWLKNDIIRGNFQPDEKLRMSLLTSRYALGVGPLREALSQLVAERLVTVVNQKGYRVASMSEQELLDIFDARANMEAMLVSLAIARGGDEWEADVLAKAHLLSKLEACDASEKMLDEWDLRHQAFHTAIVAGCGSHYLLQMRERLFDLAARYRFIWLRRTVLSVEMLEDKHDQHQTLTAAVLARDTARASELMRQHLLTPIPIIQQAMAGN
The experiment in a line: SPR.

For data set [2], the target named is T1, CsiR (Escherichia coli BW25113 (K-12)). As to the kind of experiment: hydroxyl radical footprinting.
Data set [3] has as its system CsiR (Escherichia coli BW25113 (K-12)). As to the kind of experiment: SPR. In general terms: Surface plasmon resonance follows binding to a sensor surface in real time, without labels.

Broadly, the Kd is the free concentration of one partner at which half of the binding sites on the other are occupied at equilibrium, for simple one-to-one binding. A higher Kd goes with a looser complex. Take “CTTTTGTGCGCATTTTTCAGAAATGTAGATATTTTTAGATTATGGCTACGAAATGAG (double strand) [csiD 5'-UTR/promoter PCR product MS177/MS178]”: the Kd in data set [1] turned out to be 10 nM.

As to “TATGAGATGTAGGGTGACATGGCGATGCTCATTTCGTAGCCATAATCTAAAAATATCTACATTTCTGAAAAATGCGCACAAAAGCGACATATTGTTTTCTTATTGTGATCAAAAGCAACA (double strand) [csiD promoter PCR product MS170/MS171]”, the binding result in data set [2] is “binds”.

In data set [3], “csiD 5'-UTR/promoter PCR product MS177/MS178” showed a dissociation constant (Kd) of 10 nM.

Values taken from publication PMC6265302, “Widespread bacterial lysine degradation proceeding via glutarate and L-2-hydroxyglutarate” (Nature Communications, 2018).
